Drawing on the supplement of paper PMC10567573, this text covers protein stability index for 94 variants.

B1: ATE1 (parent)
chain: DYFPSEDFYRCGYCKNESGSRSNG
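Note: lentivirally expressed fusions sorted by FACS into six bins by GFP to DsRed ratio, PSI derived from sequencing read proportions per bin multiplied by bin number.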

This data set covers variants of B1. Description: protein stability index of a GFP-peptide fusion (GPS, HEK-293T) (PSI 1-6); higher = more stable. Particulars: c terminus: a fixed tail appended.
As to DYRPSEDFYRCGYCKNESGSRSNG, the protein stability index stood at 2.58.
On to DYMPSEDFYRCGYCKNESGSRSNG, for which the protein stability index turned out to be 2.99.
Consider DYGPSEDFYRCGYCKNESGSRSNG, for which the protein stability index was 3.35.
DYTPSEDFYRCGYCKNESGSRSNG: the protein stability index is 2.45.
With DYIPSEDFYRCGYCKNESGSRSNG, the protein stability index was 2.27.
The figure for DYVPSEDFYRCGYCKNESGSRSNG is 2.13; for DYSPSEDFYRCGYCKNESGSRSNG it is 2.83; for DYAPSEDFYRCGYCKNESGSRSNG it is 2.45.
To DYNPSEDFYRCGYCKNESGSRSNG belongs 2.08; to DYDPSEDFYRCGYCKNESGSRSNG, 2.61; to DYCPSEDFYRCGYCKNESGSRSNG, 1.49.
As to DYPPSEDFYRCGYCKNESGSRSNG, the protein stability index stood at 3.21.
The figure for DYHPSEDFYRCGYCKNESGSRSNG is 1.8; for DYKPSEDFYRCGYCKNESGSRSNG it is 2.44.
For DYLPSEDFYRCGYCKNESGSRSNG, the protein stability index was determined as 1.83.
In the case of DYYPSEDFYRCGYCKNESGSRSNG, the protein stability index was determined as 2.14.
The figure for DYWPSEDFYRCGYCKNESGSRSNG is 2.85; for DYQPSEDFYRCGYCKNESGSRSNG it is 3.12; for DYFPSNDFYRCGYCKNESGSRSNG it is 1.68.
To DYFPSCDFYRCGYCKNESGSRSNG belongs 1.85; to DYFPSSDFYRCGYCKNESGSRSNG, 1.8; to DYFPSKDFYRCGYCKNESGSRSNG, 1.35.
The figure for DYFPSQDFYRCGYCKNESGSRSNG is 1.92; for DYFPSFDFYRCGYCKNESGSRSNG it is 1.56.
With DYFPSWDFYRCGYCKNESGSRSNG, the protein stability index is 2.04.
To DYFPSMDFYRCGYCKNESGSRSNG belongs 2.38.
The figure for DYFPSDDFYRCGYCKNESGSRSNG is 1.92.
The figure for DYFPSPDFYRCGYCKNESGSRSNG is 2.24.
With DYFPSVDFYRCGYCKNESGSRSNG, the protein stability index is 1.45.
As to DYFPSADFYRCGYCKNESGSRSNG, the protein stability index was 1.81.
The figure for DYFPSRDFYRCGYCKNESGSRSNG is 1.53; for DYFPSHDFYRCGYCKNESGSRSNG it is 2.17; for DYFPSLDFYRCGYCKNESGSRSNG it is 1.85.
Consider DYFPSYDFYRCGYCKNESGSRSNG, for which the protein stability index stood at 1.74.
To DYFPSTDFYRCGYCKNESGSRSNG belongs 2.94.
To DYFPSGDFYRCGYCKNESGSRSNG belongs 1.65; to DSFPSEDFYRCGYCKNESGSRSNG, 2.44.
Regarding DRFPSEDFYRCGYCKNESGSRSNG, the protein stability index was determined as 4.56.
Turning to DLFPSEDFYRCGYCKNESGSRSNG, the protein stability index turned out to be 2.43.
Regarding DPFPSEDFYRCGYCKNESGSRSNG, the protein stability index worked out at 2.64.
The figure for DDFPSEDFYRCGYCKNESGSRSNG is 2.53; for DFFPSEDFYRCGYCKNESGSRSNG it is 1.82; for DIFPSEDFYRCGYCKNESGSRSNG it is 2.09.
To DHFPSEDFYRCGYCKNESGSRSNG belongs 2.37; to DWFPSEDFYRCGYCKNESGSRSNG, 1.24.
Take DEFPSEDFYRCGYCKNESGSRSNG: the protein stability index was found to be 2.63.
For the variant DVFPSEDFYRCGYCKNESGSRSNG, the protein stability index came out at 2.18.
The figure for DGFPSEDFYRCGYCKNESGSRSNG is 2.56; for DAFPSEDFYRCGYCKNESGSRSNG it is 3.05; for DNFPSEDFYRCGYCKNESGSRSNG it is 2.36.
Take DKFPSEDFYRCGYCKNESGSRSNG: the protein stability index is 2.38.
To DCFPSEDFYRCGYCKNESGSRSNG belongs 2.82.
On to DMFPSEDFYRCGYCKNESGSRSNG, for which the protein stability index stood at 1.36.
The figure for DTFPSEDFYRCGYCKNESGSRSNG is 2.63; for DYFCSEDFYRCGYCKNESGSRSNG it is 2.08; for DYFTSEDFYRCGYCKNESGSRSNG it is 2.26.
Take DYFQSEDFYRCGYCKNESGSRSNG: the protein stability index stood at 2.77.
To DYFFSEDFYRCGYCKNESGSRSNG belongs 1.43.
On to DYFLSEDFYRCGYCKNESGSRSNG, for which the protein stability index is 2.53.
To DYFRSEDFYRCGYCKNESGSRSNG belongs 1.79; to DYFDSEDFYRCGYCKNESGSRSNG, 2.07; to DYFWSEDFYRCGYCKNESGSRSNG, 1.08.
To DYFMSEDFYRCGYCKNESGSRSNG belongs 2.59; to DYFNSEDFYRCGYCKNESGSRSNG, 2.16.
Regarding DYFVSEDFYRCGYCKNESGSRSNG, the protein stability index was 1.18.
The figure for DYFKSEDFYRCGYCKNESGSRSNG is 1.92; for DYFSSEDFYRCGYCKNESGSRSNG it is 3.09.
To DYFESEDFYRCGYCKNESGSRSNG belongs 2.21; to DYFHSEDFYRCGYCKNESGSRSNG, 1.29.
To DYFISEDFYRCGYCKNESGSRSNG belongs 1.45; to AYFPSEDFYRCGYCKNESGSRSNG, 2.3; to NYFPSEDFYRCGYCKNESGSRSNG, 2.
Turning to VYFPSEDFYRCGYCKNESGSRSNG, the protein stability index was 2.58.
Consider CYFPSEDFYRCGYCKNESGSRSNG, for which the protein stability index came to 2.26.
Consider MYFPSEDFYRCGYCKNESGSRSNG, for which the protein stability index stood at 2.06.
The figure for SYFPSEDFYRCGYCKNESGSRSNG is 2.15; for YYFPSEDFYRCGYCKNESGSRSNG it is 3.1; for EYFPSEDFYRCGYCKNESGSRSNG it is 1.65.
The figure for WYFPSEDFYRCGYCKNESGSRSNG is 3.35; for LYFPSEDFYRCGYCKNESGSRSNG it is 2.38.
The figure for PYFPSEDFYRCGYCKNESGSRSNG is 2.35; for FYFPSEDFYRCGYCKNESGSRSNG it is 1.84.
For the variant TYFPSEDFYRCGYCKNESGSRSNG, the protein stability index worked out at 2.24.
To RYFPSEDFYRCGYCKNESGSRSNG belongs 1.74; to KYFPSEDFYRCGYCKNESGSRSNG, 2.28; to HYFPSEDFYRCGYCKNESGSRSNG, 2.58.
Take QYFPSEDFYRCGYCKNESGSRSNG: the protein stability index amounted to 1.89.
For the variant IYFPSEDFYRCGYCKNESGSRSNG, the protein stability index came out at 1.23.
The figure for DYFPSEDEYRCGYCKNESGSRSNG is 3.77; for DYFPSEDCYRCGYCKNESGSRSNG it is 2.54; for DYFPSEDAYRCGYCKNESGSRSNG it is 2.32.
With DYFPSEDDYRCGYCKNESGSRSNG, the protein stability index was 2.44.
The figure for DYFPSEPFYRCGYCKNESGSRSNG is 2.71; for DYFPSETFYRCGYCKNESGSRSNG it is 2.15.
